In patent US20250011739, “ENGINEERED CAS PROTEIN AND USE THEREOF” (SHANDONG SHUNFENG BIOTECHNOLOGY CO.LTD., published 2025):

Legend:
Experiment in all cases: cell_activity; PAM ATG; GFP reporter in CHO cells
[1] = target: T1, Cas12j19 E100K-S400R-L763R (E100K,S400R,L763R)
T1 chain: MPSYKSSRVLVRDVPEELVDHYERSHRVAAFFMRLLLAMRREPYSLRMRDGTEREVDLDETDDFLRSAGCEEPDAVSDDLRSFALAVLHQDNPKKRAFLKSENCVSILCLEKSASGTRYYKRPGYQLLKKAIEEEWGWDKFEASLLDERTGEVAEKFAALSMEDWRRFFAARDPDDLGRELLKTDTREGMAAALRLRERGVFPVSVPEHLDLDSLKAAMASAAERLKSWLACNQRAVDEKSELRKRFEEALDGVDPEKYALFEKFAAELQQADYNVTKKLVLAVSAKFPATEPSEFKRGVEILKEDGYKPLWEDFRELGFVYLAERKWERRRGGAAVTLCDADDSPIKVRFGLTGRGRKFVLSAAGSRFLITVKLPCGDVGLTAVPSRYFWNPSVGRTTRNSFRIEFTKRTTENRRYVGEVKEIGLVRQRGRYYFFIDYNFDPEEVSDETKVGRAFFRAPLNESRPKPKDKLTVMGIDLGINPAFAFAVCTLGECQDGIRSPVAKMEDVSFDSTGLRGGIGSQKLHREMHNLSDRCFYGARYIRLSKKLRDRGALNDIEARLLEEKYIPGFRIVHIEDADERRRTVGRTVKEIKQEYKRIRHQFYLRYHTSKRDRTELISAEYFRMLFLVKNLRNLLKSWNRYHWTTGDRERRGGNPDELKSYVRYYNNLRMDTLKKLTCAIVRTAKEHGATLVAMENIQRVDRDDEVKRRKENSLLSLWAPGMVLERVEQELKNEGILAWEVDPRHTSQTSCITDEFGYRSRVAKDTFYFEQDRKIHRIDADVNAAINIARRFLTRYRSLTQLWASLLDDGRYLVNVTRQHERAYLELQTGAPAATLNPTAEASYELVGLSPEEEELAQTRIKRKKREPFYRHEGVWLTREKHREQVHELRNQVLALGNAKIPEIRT
Excerpt: (§1) With reference to (Yang, Yi, et al. “Highly efficient and rapid detection of the cleavage activity of Cas9/gRNA via a fluorescent reporter.” Applied biochemistry and biotechnology 180.4 (2016): 655-667.), a fluorescent reporter system for verification of Cas12j19 cleavage was constructed, where a fluorescent reporter vector carried an RFP and a non-luminous GFFP, and a Cas vector carried a CFP. A target FUT8-3: […] (SEQ ID NO: 28) on a GFFP sequence was selected for testing, where an underlined part was a PAM sequence. A DR sequence was […] (SEQ ID NO: 29). 48 h after a CHO cell was transfected, a proportion of GFP fluorescence in CFP and RFP fluorescence was determined by FCM to determine an editing efficiency.
(§2) In this example, in SEQ ID NO: 19, an amino acid 100 was mutated into K, an amino acid 400 was mutated into R, and an amino acid 763 was mutated into R to obtain a three site-mutated protein E100K-S400R-L763R; and in SEQ ID NO: 19, an amino acid 100 was mutated into K, an amino acid 400 was mutated into R, an amino acid 763 was mutated into R, and an amino acid 45 was mutated into T to obtain a four site-mutated protein E100K-S400R-L763R-S45T.

Cas12j19 WT = target: T2, Cas12j19 WT
T2 chain: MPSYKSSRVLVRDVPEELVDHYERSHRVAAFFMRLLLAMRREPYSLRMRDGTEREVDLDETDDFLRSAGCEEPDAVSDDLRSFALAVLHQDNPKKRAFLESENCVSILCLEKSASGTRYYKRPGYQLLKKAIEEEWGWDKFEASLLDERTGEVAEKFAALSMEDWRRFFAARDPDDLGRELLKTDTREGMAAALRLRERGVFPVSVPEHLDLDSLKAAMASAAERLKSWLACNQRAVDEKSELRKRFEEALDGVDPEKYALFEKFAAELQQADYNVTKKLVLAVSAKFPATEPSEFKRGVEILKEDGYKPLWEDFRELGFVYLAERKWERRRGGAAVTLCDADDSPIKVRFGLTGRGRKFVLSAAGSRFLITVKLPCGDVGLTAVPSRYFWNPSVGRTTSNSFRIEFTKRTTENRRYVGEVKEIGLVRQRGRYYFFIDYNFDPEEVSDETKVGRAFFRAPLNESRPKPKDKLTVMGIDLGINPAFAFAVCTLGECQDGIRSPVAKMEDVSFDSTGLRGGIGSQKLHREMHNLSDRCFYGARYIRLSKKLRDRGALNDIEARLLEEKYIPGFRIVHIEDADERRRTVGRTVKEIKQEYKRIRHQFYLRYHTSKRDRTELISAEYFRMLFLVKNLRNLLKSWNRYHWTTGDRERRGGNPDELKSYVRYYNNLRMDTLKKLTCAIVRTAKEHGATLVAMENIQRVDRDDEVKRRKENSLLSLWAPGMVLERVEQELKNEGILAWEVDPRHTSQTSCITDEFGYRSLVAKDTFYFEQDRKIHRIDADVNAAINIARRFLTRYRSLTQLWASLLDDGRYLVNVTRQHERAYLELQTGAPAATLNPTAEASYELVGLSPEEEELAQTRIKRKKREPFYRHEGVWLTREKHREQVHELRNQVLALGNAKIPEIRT
Excerpt: as §1, §2

enCas-SF02 (Cas12j19 …) = target: T3, enCas-SF02 (Cas12j19 E100K-S400R-L763R-S45T) (E100K,S400R,L763R,S45T)
T3 chain: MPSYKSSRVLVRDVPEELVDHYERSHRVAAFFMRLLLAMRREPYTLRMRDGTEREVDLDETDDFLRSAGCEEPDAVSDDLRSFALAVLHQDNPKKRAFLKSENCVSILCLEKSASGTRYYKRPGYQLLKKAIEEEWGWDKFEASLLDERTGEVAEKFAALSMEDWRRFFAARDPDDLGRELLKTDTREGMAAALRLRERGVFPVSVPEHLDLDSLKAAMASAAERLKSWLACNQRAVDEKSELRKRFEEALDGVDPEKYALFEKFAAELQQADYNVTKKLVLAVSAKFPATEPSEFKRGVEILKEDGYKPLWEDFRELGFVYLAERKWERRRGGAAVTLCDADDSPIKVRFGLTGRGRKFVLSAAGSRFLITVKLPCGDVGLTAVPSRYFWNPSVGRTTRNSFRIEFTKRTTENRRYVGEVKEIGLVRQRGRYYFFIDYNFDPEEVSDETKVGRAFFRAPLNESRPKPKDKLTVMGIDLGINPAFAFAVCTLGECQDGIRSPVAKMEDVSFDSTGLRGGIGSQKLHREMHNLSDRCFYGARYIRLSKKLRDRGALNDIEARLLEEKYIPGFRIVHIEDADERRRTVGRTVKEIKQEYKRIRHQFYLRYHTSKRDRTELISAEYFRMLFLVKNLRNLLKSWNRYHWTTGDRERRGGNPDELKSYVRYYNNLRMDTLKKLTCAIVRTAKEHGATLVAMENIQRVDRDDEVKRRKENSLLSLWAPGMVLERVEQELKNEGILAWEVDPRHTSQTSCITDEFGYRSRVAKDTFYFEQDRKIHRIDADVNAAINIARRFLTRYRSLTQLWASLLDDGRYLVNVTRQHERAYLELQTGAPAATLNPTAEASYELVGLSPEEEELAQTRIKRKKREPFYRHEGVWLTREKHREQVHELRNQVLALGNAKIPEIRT
Excerpt: as §1, §2

B1: Cas12j19 FUT8-3 guide (DR + spacer, order inferred) ; FUT8-3 target (ssRNA ; dsDNA)
RNA: GUGCUGCUGUCUCCCAGACGGGAGGCAGAACUGCACGAGGCUGUCUACAAUGGGGA
DNA 1: ATGGAGGCTGTCTACAATGGGGA
DNA 2: TCCCCATTGTAGACAGCCTCCAT
activity [1]: ~90%
activity (Cas12j19 WT): ~6%
activity (enCas-SF02 (Cas12j19 …)): ~90%
